Data: patent US20240270817A1 (PETMEDIX, published 2024)
Like-named read-outs stand apart in the source and are kept apart here.

Assays:
[1] = target: NGF (species not stated) (Homo sapiens (Human)) (UniProt P01138); assay: cell-based or functional assay
[2] = target: NGF (species not stated) (Homo sapiens (Human)) (UniProt P01138); assay: SPR, Biacore 8K; captured on Protein A chip, NGF in solution (the table does not say human or rat)
[3] = target: T1, human Nerve Growth Factor (human, UniProt P01138 122-241); assay: SPR, Biacore 8K; captured on Protein A chip, hNGF in solution, multi-cycle kinetics
T1 construct: Bought protein; also called hNGF; human NGF

[4] = target: T1, human Nerve Growth Factor; assay: cell-based or functional assay
[5] = target: NGF (species not stated) (Homo sapiens (Human)) (UniProt P01138); assay: cell-based or functional assay; remark: listed apart in the source

T1 sequence (P01138 122-241 limits assumed): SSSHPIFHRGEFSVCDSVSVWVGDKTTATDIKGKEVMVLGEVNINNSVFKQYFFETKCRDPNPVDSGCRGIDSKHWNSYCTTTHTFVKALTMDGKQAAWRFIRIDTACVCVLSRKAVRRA

Row | Molecule | Bottom (%), best-fit values, PathHunter TrkA activation assay [1] [%] | IC50 (nM), PathHunter TrkA activation assay [1] [nM] | Top (%), best-fit values, PathHunter TrkA activation assay [1] [%] | Kd [2] [nM] | Kd [3] [nM] | IC50 (nM), TF-1 cell proliferation inhibition [4] [nM] | ICMAX (%), TF-1 cell proliferation inhibition [4] [%] | Bottom (%), best-fit, PathHunter TrkA activation assay [5] [%] | IC50 (nM), PathHunter TrkA activation assay [5] [nM] | Top (%), best-fit, PathHunter TrkA activation assay [5] [%] | maximal TrkA inhibition, PathHunter TrkA activation assay [5] [%]
1 | PetML308 (Human p75NTR ECD full stalk IgG1) (Fc fusion) | 44.5 | 282 | 105 | 8.78 |  |  |  |  |  |  | 
2 | PetML319 (Human p75NTR ECD no stalk IgG1) (Fc fusion) | 9.5 | 8.04 |  | 0.358 |  |  |  |  |  |  | 
3 | Bedinvetmab (antibody, V domains shown) VH: EVQLVESGGDLVKPGGSLRLSCVASGFTFSSHGMHWVRQSPGKGLQWVAVINSGGSSTYYTDAVKGRFTISRDNAKNTVYLQMNSLRAEDTAMYYCAKESVGGWEQLVGPHFDYWGQGTLVIVSS VL: QSVLTQPTSVSGSLGQRVTISCSGSTNNIGILGASWYQLFPGKAPKLLVYGNGNRPSGVPDRFSGADSGDSVTLTITGLQAEDEADYYCQSFDTTLGAHVFGGGTHLTVL | 2.11 | 1.14 | 93.5 | 0.0073 | 0.0073 | 0.89 | 96.8 | 5.35 | 4.24 | 123 | 100
